± gives the uncertainty stated by the source.
Assay: protein stability index of a GFP-peptide fusion (yeast GPS) (PSI 1-4); higher = more stable; sorted into four equal gates, so the index is relative within each strain
Outline: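 Sequencing reads from sorted gates were used to score each peptide. The library consisted of tiled 17-residue yeast protein peptides fused downstream of GFP on a Cherry-expressing plasmid, pooled and carried in yeast. Mid-log cultures in leucine-free medium were split into four equal gates by GFP/Cherry ratio, and each gate's plasmids were PCR-amplified and Illumina-sequenced. The protein stability index adds up, over all gates, the read frequency multiplied by the gate number.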

## SVSSPIELNFDAVKDFK [QCR2]
doa10∆
  protein stability index: 1.89 ± 0.069
pdr5∆
  protein stability index: 1.67 ± 0.065
san1∆
  protein stability index: 2.5 ± 0.09
ubr1∆
  protein stability index: 1.57 ± 0.053

## SVTRAGNIISSDKTIVP [SIN4]
doa10∆
  protein stability index: 3.01 ± 0.12
pdr5∆
  protein stability index: 2.88 ± 0.099
san1∆
  protein stability index: 2.97 ± 0.12
ubr1∆
  protein stability index: 3.1 ± 0.068

## SWSNGKITSPIRSVALN [RRP42]
doa10∆
  protein stability index: 2.62 ± 0.11
pdr5∆
  protein stability index: 2.62 ± 0.089
san1∆
  protein stability index: 2.66 ± 0.091
ubr1∆
  protein stability index: 2.81 ± 0.073

## SWSSSAAVIMRCKIYFF [PCI8]
doa10∆
  protein stability index: 1.24 ± 0.055
pdr5∆
  protein stability index: 1.71 ± 0.058
san1∆
  protein stability index: 1.34 ± 0.11
ubr1∆
  protein stability index: 1.28 ± 0.047

## SYANHLEESDVEDTLHV [YOR098C/NUP1]
doa10∆
  protein stability index: 2.98 ± 0.082
pdr5∆
  protein stability index: 2.4 ± 0.065
san1∆
  protein stability index: 2.13 ± 0.081
ubr1∆
  protein stability index: 1.97 ± 0.051

## SYHLWPSFTDEQWITIE [PRP8]
doa10∆
  protein stability index: 2.44 ± 0.089
pdr5∆
  protein stability index: 2.66 ± 0.061
san1∆
  protein stability index: 2.82 ± 0.09
ubr1∆
  protein stability index: 2.57 ± 0.057

## SYLISHKDSFYDRATLT [RPO31]
doa10∆
  protein stability index: 2.43 ± 0.073
pdr5∆
  protein stability index: 2.6 ± 0.067
san1∆
  protein stability index: 2.21 ± 0.065
ubr1∆
  protein stability index: 2.35 ± 0.072

## SYLSETLISRISSLFTI [YML103C/NUP188]
doa10∆
  protein stability index: 1.77 ± 0.062
pdr5∆
  protein stability index: 1.89 ± 0.064
san1∆
  protein stability index: 1.5 ± 0.074
ubr1∆
  protein stability index: 2.05 ± 0.083

## SYSGYDIEDALVLNKSS [RET1]
doa10∆
  protein stability index: 2.4 ± 0.059
pdr5∆
  protein stability index: 2.63 ± 0.052
san1∆
  protein stability index: 2.18 ± 0.071
ubr1∆
  protein stability index: 2.45 ± 0.047

## SYSPTSPSYSPTSPAYS [RPO21]
doa10∆
  protein stability index: 3 ± 0.071
pdr5∆
  protein stability index: 3.05 ± 0.063
san1∆
  protein stability index: 2.73 ± 0.062
ubr1∆
  protein stability index: 3.15 ± 0.048

## SYTAFSRLTLLLRALKT [PRP8]
doa10∆
  protein stability index: 1.27 ± 0.042
pdr5∆
  protein stability index: 1.19 ± 0.037
san1∆
  protein stability index: 1.24 ± 0.082
ubr1∆
  protein stability index: 1.25 ± 0.035

## SYWQKSYFKNSVIVKFH [LIN1]
doa10∆
  protein stability index: 2.56 ± 0.041
pdr5∆
  protein stability index: 2.62 ± 0.045
san1∆
  protein stability index: 2.42 ± 0.06
ubr1∆
  protein stability index: 2.35 ± 0.041

## TAAETFKLFNKYRPETA [RPL8A]
doa10∆
  protein stability index: 2.8 ± 0.065
pdr5∆
  protein stability index: 3 ± 0.059
san1∆
  protein stability index: 2.64 ± 0.072
ubr1∆
  protein stability index: 2.8 ± 0.051

## TAAQVANVELTPSNIRS [RPC34]
doa10∆
  protein stability index: 2.79 ± 0.1
pdr5∆
  protein stability index: 2.82 ± 0.071
san1∆
  protein stability index: 2.8 ± 0.085
ubr1∆
  protein stability index: 2.87 ± 0.093

## TAELIKELKEKEAAESP [PUP2]
doa10∆
  protein stability index: 2.79 ± 0.058
pdr5∆
  protein stability index: 3.3 ± 0.094
san1∆
  protein stability index: 3.21 ± 0.12
ubr1∆
  protein stability index: 3.22 ± 0.074

## TAKKDMSSTTPKLESVK [SNF12]
doa10∆
  protein stability index: 3.31 ± 0.056
pdr5∆
  protein stability index: 3.35 ± 0.05
san1∆
  protein stability index: 3.1 ± 0.042
ubr1∆
  protein stability index: 3.27 ± 0.04

## TAKRKSRKRKPKSASNT [IRR1]
doa10∆
  protein stability index: 2.97 ± 0.12
pdr5∆
  protein stability index: 3.21 ± 0.13
san1∆
  protein stability index: 2.6 ± 0.26
ubr1∆
  protein stability index: 3.08 ± 0.055

## TAMKKVEDGNILVFQVS [RPL25]
doa10∆
  protein stability index: 2.53 ± 0.049
pdr5∆
  protein stability index: 2.48 ± 0.056
san1∆
  protein stability index: 2.48 ± 0.052
ubr1∆
  protein stability index: 2.8 ± 0.044

## TAQEINFKMLVLLATWN [IRR1]
doa10∆
  protein stability index: 1.84 ± 0.039
pdr5∆
  protein stability index: 2.04 ± 0.047
san1∆
  protein stability index: 2.14 ± 0.051
ubr1∆
  protein stability index: 1.83 ± 0.031

## TASDQLFGMCESLYEPN [PUP3]
doa10∆
  protein stability index: 2.06 ± 0.059
pdr5∆
  protein stability index: 2.12 ± 0.058
san1∆
  protein stability index: 2.71 ± 0.084
ubr1∆
  protein stability index: 1.83 ± 0.039

## TATTGKRKPAKSSSNRS [RPN4]
doa10∆
  protein stability index: 2.68 ± 0.065
pdr5∆
  protein stability index: 2.96 ± 0.07
san1∆
  protein stability index: 2.68 ± 0.047
ubr1∆
  protein stability index: 2.85 ± 0.047

## TAVNGIDTDLFGAPNNP [YGL172W/NUP49]
doa10∆
  protein stability index: 3.1 ± 0.083
pdr5∆
  protein stability index: 3.23 ± 0.08
san1∆
  protein stability index: 3.25 ± 0.058
ubr1∆
  protein stability index: 3.19 ± 0.053

## TAVVNNAAPANVTGGKA [SWI1]
doa10∆
  protein stability index: 2.64 ± 0.038
pdr5∆
  protein stability index: 1.98 ± 0.04
san1∆
  protein stability index: 2.37 ± 0.093
ubr1∆
  protein stability index: 2.66 ± 0.037

## TCGSKGSTLNVSQMVAV [RPO31]
doa10∆
  protein stability index: 3.1 ± 0.13
pdr5∆
  protein stability index: 2.89 ± 0.097
san1∆
  protein stability index: 2.91 ± 0.15
ubr1∆
  protein stability index: 2.79 ± 0.15

## TCSCCKKTVAGGAYTVS [RPL43A]
doa10∆
  protein stability index: 1.65 ± 0.064
pdr5∆
  protein stability index: 2.1 ± 0.11
san1∆
  protein stability index: 1.76 ± 0.086
ubr1∆
  protein stability index: 2.15 ± 0.066

## TCSYVEEAGSPLVYRHE [RPB9]
doa10∆
  protein stability index: 3.06 ± 0.13
pdr5∆
  protein stability index: 2.92 ± 0.15
san1∆
  protein stability index: 3.28 ± 0.11
ubr1∆
  protein stability index: 2.75 ± 0.28

— the supplement of paper PMC9732359
